From paper PMC10046281, “MoS2-Carbon Nanodots as a New Electrochemiluminescence Platform for Breast Cancer Biomarker Detection” come the findings set out here.

This data set concerns the target HER2 (recombinant human HER2 standard) (human, UniProt P04626 23-652). The data set can be described thus: electrochemiluminescence aptasensor; aptamer immobilized on MoS2-NS, BSA blocked; [Ru(bpy)3]2+/CD read-out; LOD 1.84 fg/mL (not a Kd); HER2 diluted in 10 mM phosphate buffer, 0.4 M NaCl, pH 7.4; BSA-blocked electrode; incubation temperature not given in the material. As to conditions: protein: recombinant.

B1: Apt-SH (HER2 aptamer) (ssDNA)
DNA: AACCGCCCAAATCCCTAAGAGTCTGCACTTGTCATTTTGTATATGTATTTGGTTTTTGGCTCTCACAGACACACTACACACGCACA
modifications: 5'-SH-(CH2)6 thiol
B1: the binding result is recorded as “binds”.
